# Experiments:
# C3b [1] = biological target: C3b (UniProt P01024); experiment: radioligand binding; C3b (5 ug/ml) coated on microtiter wells, blocked with 0.5% BSA; 125I-sCR1 (30,000 cpm) mixed with the unlabelled protein (0-0.33 uM) in 1/2 PBS with 0.1% BSA; 60 min, 37 C; bound radioactivity counted
# Target sequence in this assay (P01024 23-667, chain 1 of 2): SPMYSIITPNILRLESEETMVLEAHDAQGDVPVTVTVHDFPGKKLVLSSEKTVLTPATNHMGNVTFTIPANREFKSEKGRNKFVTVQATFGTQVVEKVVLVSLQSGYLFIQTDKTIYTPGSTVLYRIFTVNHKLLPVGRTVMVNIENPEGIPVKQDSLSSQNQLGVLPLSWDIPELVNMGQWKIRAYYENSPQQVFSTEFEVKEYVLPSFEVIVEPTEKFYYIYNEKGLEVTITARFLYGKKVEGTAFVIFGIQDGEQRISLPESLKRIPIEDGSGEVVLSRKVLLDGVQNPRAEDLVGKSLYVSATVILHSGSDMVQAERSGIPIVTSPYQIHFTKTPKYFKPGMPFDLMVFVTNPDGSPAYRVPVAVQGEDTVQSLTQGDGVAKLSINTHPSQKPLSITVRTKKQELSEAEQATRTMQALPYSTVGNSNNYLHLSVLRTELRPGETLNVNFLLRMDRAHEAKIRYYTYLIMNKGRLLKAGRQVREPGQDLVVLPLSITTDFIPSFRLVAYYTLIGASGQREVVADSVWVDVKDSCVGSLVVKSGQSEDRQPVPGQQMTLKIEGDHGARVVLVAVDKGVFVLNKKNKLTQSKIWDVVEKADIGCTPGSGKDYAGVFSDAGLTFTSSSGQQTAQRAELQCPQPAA
# Target sequence in this assay (P01024 749-1663, chain 2 of 2): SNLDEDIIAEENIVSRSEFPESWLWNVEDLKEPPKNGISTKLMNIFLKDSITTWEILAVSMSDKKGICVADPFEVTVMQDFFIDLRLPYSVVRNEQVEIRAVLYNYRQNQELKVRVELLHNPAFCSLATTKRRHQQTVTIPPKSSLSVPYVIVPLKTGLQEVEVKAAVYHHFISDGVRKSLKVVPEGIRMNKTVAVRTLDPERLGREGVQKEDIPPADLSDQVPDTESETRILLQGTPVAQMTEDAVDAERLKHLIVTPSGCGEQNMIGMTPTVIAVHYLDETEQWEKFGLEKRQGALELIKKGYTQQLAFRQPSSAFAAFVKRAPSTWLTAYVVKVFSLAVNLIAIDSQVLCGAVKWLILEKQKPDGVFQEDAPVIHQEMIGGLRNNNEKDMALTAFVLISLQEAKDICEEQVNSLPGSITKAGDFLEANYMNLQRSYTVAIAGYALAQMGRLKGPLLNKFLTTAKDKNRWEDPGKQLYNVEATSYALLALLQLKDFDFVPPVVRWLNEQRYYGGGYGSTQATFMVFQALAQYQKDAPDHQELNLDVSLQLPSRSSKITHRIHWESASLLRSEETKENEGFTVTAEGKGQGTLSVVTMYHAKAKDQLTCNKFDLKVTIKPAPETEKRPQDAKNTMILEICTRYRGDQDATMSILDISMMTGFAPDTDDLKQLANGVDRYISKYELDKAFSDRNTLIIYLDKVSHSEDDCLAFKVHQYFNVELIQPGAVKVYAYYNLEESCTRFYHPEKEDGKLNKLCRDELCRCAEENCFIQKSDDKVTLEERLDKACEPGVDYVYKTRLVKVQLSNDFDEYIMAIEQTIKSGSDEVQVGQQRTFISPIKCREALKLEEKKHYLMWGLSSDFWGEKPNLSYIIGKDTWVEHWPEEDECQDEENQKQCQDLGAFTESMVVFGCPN
# C3b [2] = biological target: T1, C3b (UniProt P01024); experiment: as above; conditions: both partners purified
# T1 construct: complement C3 beta chain, as it stands in C3b; alpha'-chain of C3b, the cut product of the C3 alpha chain (here made with trypsin); the C3b was detected with anti-human C3 and anti-human C3c antibodies; also called solid-phase C3b; source: C3 purified from plasma; C3b prepared from C3 using trypsin
# T1 sequence (P01024 23-667, chain 1 of 2): as the sequence (P01024 23-667, chain 1 of 2) above
# T1 sequence (P01024 749-1663, chain 2 of 2): as the sequence (P01024 749-1663, chain 2 of 2) above
molecule,measurement,setting,value
Extracellular complement binding protein (Ecb) (natural protein),percent inhibition of sCR1 binding to C3b,C3b [1],80%
"Factor H (FH) (natural protein, complement factor H, plasma regulator; source: purified from plasma) EDCNELPPRRNTEILTGSWSDQTYPEGTQAIYKCRPGYRSLGNVIMVCRKGEWVALNPLRKCQKRPCGHPGDTPFGTFTLTGGNVFEYGVKAVYTCNEGYQLLGEINYRECDTDGWTNDIPICEVVKCLPVTAPENGKIVSSAMEPDREYHFGQAVRFVCNSGYKIEGDEEMHCSDDGFWSKEKPKCVEISCKSPDVINGSPISQKIIYKENERFQYKCNMGYEYSERGDAVCTESGWRPLPSCEEKSCDNPYIPNGDYSPLRIKHRTGDEITYQCRNGFYPATRGNTAKCTSTGWIPAPRCTLKPCDYPDIKHGGLYHENMRRPYFPVAVGKYYSYYCDEHFETPSGSYWDHIHCTQDGWSPAVPCLRKCYFPYLENGYNQNYGRKFVQGKSIDVACHPGYALPKAQTTVTCMENGWSPTPRCIRVKTCSKSSIDIENGFISESQYTYALKEKAKYQCKLGYVTADGETSGSITCGKDGWSAQPTCIKSCDIPVFMNARTKNDFTWFKLNDTLDYECHDGYESNTGSTTGSIVCGYNGWSDLPICYERECELPKIDVHLVPDRKKDQYKVGEVLKFSCKPGFTIVGPNSVQCYHFGLSPDLPICKEQVQSCGPPPELLNGNVKEKTKEEYGHSEVVEYYCNPRFLMKGPNKIQCVDGEWTTLPVCIVEESTCGDIPELEHGWAQLSSPPYYYGDSVEFNCSESFTMIGHRSITCIHGVWTQLPQCVAIDKLKKCKSSNLIILEEHLKNKKEFDHNSNIRYRCRGKEGWIHTVCINGRWDPEVNCSMAQIQLCPPPPQIPNSHNMTTTLNYRDGEKVSVLCQENYLIQEGEEITCKDGRWQSIPLCVEKIPCSQPPQIEHGTINSSRSSQESYAHGTKLSYTCEGGFRISEENETTCYMGKWSSPPQCEGLPCKSPPEISHGVVAHMSDSYQYGEEVTYKCFEGFGIDGPAIAKCLGEKWSHPPSCIKTDCLSLPSFENAIPMGEKKDVYKAGEQVTYTCATYYKMDGASNVTCINSRWTGRPTCRDTSCVNPPTVQNAYIVSRQMSKYPSGERVRYQCRSPYEMFGDEEVMCLNGNWTEPPQCKDSTGKCGPPPPIDNGDITSFPLSVYAPASSVEYQCQNLYQLEGNKRITCRNGQWSEPPKCLHPCVISREIMENYNIALRWTAKQKLYSRTGESVEFVCKRGYRLSSRSHTLRTTCWDGKLEYPTCAKR",binding result,C3b [2],binds

# Source: article PMC5342210, “Staphylococcal protein Ecb impairs complement receptor-1 mediated recognition of opsonized bacteria” (PLoS ONE, 2017)
